Earlier results on one substance are cited in paper PMC6442720.

For the series, the target named is laminin 10 (Homo sapiens) (UniProt O15230).

Turning to integrin α3β1 (from UniProt P26006), the Kd was 7.9 nM.

Broadly, the Kd is the constant that tells how readily two partners part at equilibrium.
